Read-outs that look alike come from different tables or passages of the source.
T1: SsoSSB WT (Saccharolobus solfataricus DSM 1617 …, UniProt Q97W73 1-148)
T1 sequence: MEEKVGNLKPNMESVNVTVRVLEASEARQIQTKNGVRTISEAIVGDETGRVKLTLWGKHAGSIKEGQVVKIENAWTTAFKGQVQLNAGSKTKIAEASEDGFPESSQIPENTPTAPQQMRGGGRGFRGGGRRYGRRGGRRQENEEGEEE


Experiments:
Test in all cases: native MS
SsoSSB WT [1] = biological target: T1, SsoSSB WT
SsoSSB WT [2] = biological target: T1, SsoSSB WT; remark: listed apart in the source
SsoSSB WT [3] = biological target: T1, SsoSSB WT; remark: listed apart in the source
SsoSSB WT [4] = biological target: T1, SsoSSB WT; remark: listed apart in the source

| Binder | Kd (SsoSSB WT [1]) [nM] | Kd (SsoSSB WT [2]) [nM] | Kd (SsoSSB WT [3]) [nM] | Kd (SsoSSB WT [4]) [nM] |
| --- | --- | --- | --- | --- |
| TTTTTTTTTTTTTTTTTTTTTTTTTTTTTT (ssDNA) [T30] | 197 | 253 | 266 | 209 |
| TTTTTTTTTTTTTTT (ssDNA) [T15] | 1940 | 1240 | 1320 | 2080 |

Reference: paper PMC13047697
